Measured values: publication PMC3422313

Legend:
[1] = molecular target: human monoclonal anti-V3 antibody 447-52D (ARP3219) (human); assay: SPR; BIAcore 3000; mAb 447-52D immobilised on CM5 by EDC/NHS (about 2000 RU); p24:V3 proteins as analyte 0.10-4.0 uM; HBS (10 mM Hepes, 150 mM NaCl, 3 mM EDTA, pH 7.4), 0.1 mM TCEP; 20 ul/min; 25 C; 1:1 Langmuir fit
[2] = molecular target: p24:V3 CC mutant (chimeric p24:V3 protein with A14C/E45C in the p24 sequence) (HIV) (UniProt P12493); assay: cross-linking; disulfide cross-linking by dialysis into assembly buffer (50 mM Tris pH 8, 1 M NaCl) with beta ME reduced to 20 mM or lower; read by non-reducing SDS-PAGE, 10% gel
[3] = molecular target: p24:V3 CCAA mutant (chimeric p24:V3 protein with A14C/E45C/W184A/M185A in the p24 sequence) (HIV); assay: as above
[4] = molecular target: p24:V3 CCAA mutant (chimeric p24:V3 protein with A14C/E45C/W184A/M185A in the p24 sequence) (HIV); assay: SEC; Superdex-200 PC; 30 mM Tris pH 8.0, 300 mM NaCl, 2 mM bME; 0.04 mL/min; compared with aldolase (158 kDa) and ferritin (440 kDa)
[5] = molecular target: p24:V3 WT chimera (HIV p24 CA protein with the full V3 loop in place of the cyclophillin binding loop) (HIV) (UniProt P12493); assay: as above

Sequence of human monoclonal anti-V3 antibody 447-52D (ARP3219) (human) (heavy, as listed by the source, chain 1 of 2): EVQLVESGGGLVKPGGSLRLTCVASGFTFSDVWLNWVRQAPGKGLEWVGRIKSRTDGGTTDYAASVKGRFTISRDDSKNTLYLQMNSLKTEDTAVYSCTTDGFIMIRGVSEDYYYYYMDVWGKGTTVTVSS
Sequence of human monoclonal anti-V3 antibody 447-52D (ARP3219) (human) (light, as listed by the source, chain 2 of 2): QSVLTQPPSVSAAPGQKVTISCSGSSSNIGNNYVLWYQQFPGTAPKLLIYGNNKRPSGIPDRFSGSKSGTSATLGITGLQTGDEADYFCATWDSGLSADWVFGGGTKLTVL

Substance	Kd [1] [µM]	stoichiometry N [2]	stoichiometry N [3]	stoichiometry N [4]	stoichiometry N [5]
p24:V3 CC mutant (chimeric p24:V3 protein with A14C/E45C in the p24 sequence) (from UniProt P12493 101-500)	13.4	6			
p24:V3 CCAA mutant (chimeric p24:V3 protein with A14C/E45C/W184A/M185A in the p24 sequence)			6	6	
p24:V3 WT chimera (HIV p24 CA protein with the full V3 loop in place of the cyclophillin binding loop) (from UniProt P12493 1-85; P12493 101-500)	10.1				6
